The supplement of paper PMC7125110
± gives the standard error. For some assays here: This sample holds only a part of the variants without activity.

B1: glmS ribozyme (parent)
chain: AUAAAAGCGCCAGAACUACAGAAAUGUAGUUGACGAGGAGGAGGUUUAUCGAAUUUUCGGCGGAUGCCUCCAAA

Columns and labels:
Conditions in all cases: with glucosamine-6-phosphate
[1] = variants of: B1; assay: kcat; higher = faster cleavage; RNA array
Outline: (§1)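 Barcoded glmS ribozyme variants on sequenced MiSeq chips were transcribed in situ by E. coli RNA polymerase and tracked through a hybridised Cy3 probe at 37 °C. Glucosamine-6-phosphate (40 μM to 10 mM) in HEPES/KCl/Mg(OAc)2 buffer was flowed in, and tiles were imaged over ~14 h. Signals were normalised to baseline and to non-cleaving reference variants; per-tile medians were fit to one- or two-exponential decays to give kobs. kcat and KM came from weighted Michaelis–Menten fits across concentrations.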

[2] = variants of: B1; assay: self-cleavage kobs at 40 uM GlcN6P; higher = faster cleavage; RNA array
Outline: as §1

[3] = variants of: B1; assay: self-cleavage kobs at 160 uM GlcN6P; higher = faster cleavage; RNA array
Outline: as §1

[4] = variants of: B1; assay: self-cleavage kobs at 640 uM GlcN6P; higher = faster cleavage; RNA array
Outline: as §1

[5] = variants of: B1; assay: self-cleavage kobs at 2500 uM GlcN6P; higher = faster cleavage; RNA array
Outline: as §1

[6] = variants of: B1; assay: self-cleavage kobs at 10000 uM GlcN6P; higher = faster cleavage; RNA array
Outline: as §1

[7] = variants of: B1; assay: KM; higher = weaker cofactor use; RNA array
Outline: as §1

Row | Variant | kcat [1] [s⁻¹] | self-cleavage kobs at 40 uM GlcN6P [2] [s⁻¹] | self-cleavage kobs at 160 uM GlcN6P [3] [s⁻¹] | self-cleavage kobs at 640 uM GlcN6P [4] [s⁻¹] | self-cleavage kobs at 2500 uM GlcN6P [5] [s⁻¹] | self-cleavage kobs at 10000 uM GlcN6P [6] [s⁻¹] | KM [7] [µM]
1 | U47A C67U | 0.00772 ± 0.0031 | 0.00025 ± 3.1e-05 | 0.000428 ± 7.1e-05 | 0.003 ± 0.00062 | 0.00497 ± 0.0016 | 0.00638 ± 0.00092 | –
2 | U47A C67G | 0.000644 ± 7e-05 | – | 5.63e-05 ± 9.9e-06 | 0.000147 ± 1.3e-05 | 0.000379 ± 5.1e-05 | 0.000534 ± 6.4e-05 | 2020 ± 350
3 | U47A U55C | 0.0198 ± 0.0084 | 0.000537 ± 8.5e-05 | 0.00116 ± 0.00033 | 0.00441 ± 0.0013 | 0.0089 ± 0.0023 | 0.024 ± 0.0055 | –
4 | U46G G59U | < 1e-05 | < 1e-05 | – | < 1e-05 | – | – | –
5 | U45G U46C | 0.0148 ± 0.0013 | 0.000173 ± 2.8e-05 | 0.00068 ± 0.00013 | 0.0019 ± 0.00046 | 0.00634 ± 0.001 | 0.011 ± 0.0013 | 3530 ± 440
6 | U45G U46G | 0.00603 ± 0.0024 | 7.27e-05 ± 1.4e-05 | 0.000206 ± 5.5e-05 | 0.000961 ± 0.00019 | 0.00158 ± 0.00036 | 0.00523 ± 0.00084 | –
7 | U45A U56C | 0.00585 ± 0.0022 | 7.22e-05 ± 1e-05 | 0.000234 ± 3.5e-05 | 0.0014 ± 0.00014 | 0.00259 ± 0.00069 | 0.00411 ± 0.00072 | 3070 ± 1400
8 | U46C U57G | 1.4e-05 ± 2.4e-06 | – | – | – | – | – | –
9 | G44A U56G | 0.000224 ± 3.2e-05 | – | – | 5.52e-05 ± 2.2e-05 | 0.000188 ± 3.9e-05 | 0.00019 ± 2.1e-05 | –
10 | U46A U65C | 0.000937 ± 0.00023 | – | 4.37e-05 ± 1.8e-05 | 0.00029 ± 6.2e-05 | 0.000426 ± 8.2e-05 | 0.000782 ± 0.00014 | 2440 ± 1100
11 | U47C U57C | 6.99e-05 ± 7.5e-06 | – | – | – | 5.62e-05 ± 1.1e-05 | 6.24e-05 ± 9.4e-06 | –
12 | U47C U55G | 0.0038 ± 0.00044 | 9.2e-05 ± 7.2e-06 | 0.000341 ± 4.2e-05 | 0.0011 ± 0.00014 | 0.00161 ± 0.00035 | 0.00347 ± 0.00028 | 1640 ± 260
13 | U47A U69A | 9.51e-05 ± 1.3e-05 | – | 0.00011 ± 4.9e-05 | 8.57e-05 ± 2.5e-05 | 0.000188 ± 8e-05 | 8.87e-05 ± 2e-05 | –
14 | U45C U49C G66U | < 1e-05 | – | – | – | < 1e-05 | < 1e-05 | –
15 | G44U U57G | < 1e-05 | < 1e-05 | < 1e-05 | – | < 1e-05 | < 1e-05 | –
16 | U45G C68U | 0.00118 ± 0.00032 | – | 5.23e-05 ± 1.3e-05 | 0.000145 ± 2.5e-05 | 0.000287 ± 5.6e-05 | 0.000826 ± 8.4e-05 | 5190 ± 2400
17 | U45G C68G | 0.000114 ± 1.6e-05 | – | – | 2.89e-05 ± 1.3e-05 | 4.55e-05 ± 1.3e-05 | 8.96e-05 ± 1.3e-05 | 2980 ± 1100
18 | U46C U56A | 0.00121 ± 0.00013 | 2.85e-05 ± 1e-05 | 0.000117 ± 1.4e-05 | 0.000406 ± 0.00011 | 0.000915 ± 0.00015 | 0.00098 ± 0.00014 | 1470 ± 230
19 | G44U C68U | 2.53e-05 ± 4.3e-07 | < 1e-05 | – | – | – | 2.31e-05 ± 7.7e-06 | 915 ± 100
20 | U45C C67U | 0.00406 ± 0.00066 | 8.28e-05 ± 9.7e-06 | 0.000146 ± 5.8e-05 | 0.000935 ± 0.00014 | 0.00203 ± 0.00032 | 0.00337 ± 0.00031 | 2250 ± 580
21 | G43U U54G | 8.63e-05 ± 2.8e-05 | – | – | – | 6.89e-05 ± 1.8e-05 | 6.53e-05 ± 2.3e-05 | –
22 | U45A A64G | 0.0186 ± 0.0054 | 0.000998 ± 0.00025 | 0.00526 ± 0.0021 | 0.0143 ± 0.0033 | – | 0.015 ± 0.004 | 600 ± 260
23 | U46G C67U | 0.00338 ± 0.0012 | 0.000125 ± 1.7e-05 | 0.000317 ± 5.3e-05 | 0.00143 ± 0.00015 | 0.00176 ± 0.00028 | 0.00457 ± 0.00079 | 1200 ± 590
24 | U46G C67G | 0.000343 ± 3.5e-05 | 2.99e-05 ± 1.3e-05 | 2.86e-05 ± 8.4e-06 | 0.000112 ± 1.1e-05 | 0.000241 ± 2.8e-05 | 0.000295 ± 2.3e-05 | 1360 ± 310
25 | U45G A48U | 0.000351 ± 8.1e-05 | – | – | 5.51e-05 ± 1.4e-05 | 0.000209 ± 4.5e-05 | 0.000246 ± 5.7e-05 | 3040 ± 1200
26 | U47A A52G | 0.00213 ± 0.00047 | 3.28e-05 ± 1.5e-05 | 8.42e-05 ± 1.9e-05 | 0.000221 ± 3.3e-05 | 0.000661 ± 9.9e-05 | 0.00146 ± 0.0002 | 5080 ± 1600
27 | U45G U56A | 0.00335 ± 0.00043 | 7.59e-05 ± 1.8e-05 | 0.000299 ± 6.2e-05 | 0.000848 ± 0.00019 | 0.00206 ± 0.00051 | – | 1720 ± 280
28 | G44U C67U | 0.00551 ± 0.0015 | 0.000365 ± 4e-05 | 0.000837 ± 0.00016 | 0.00206 ± 0.00029 | 0.00417 ± 0.00073 | 0.00691 ± 0.001 | 727 ± 310
